From patent publication US20240252601A1

Columns and labels:
Experiment in all cases: cell-based or functional assay
[1] = target: SARS-CoV2 Spike, Omicron BA.2 variant (on pseudovirus) (SARS-CoV2)
[2] = target: SARS-CoV2 Spike D614G (on pVSV-Luc-SARS-CoV2-S pseudovirus) (SARS-CoV2) (UniProt P0DTC2)
[3] = target: SARS-CoV2 Spike, Omicron BA.2.12.1 variant (on pseudovirus) (SARS-CoV2)
[4] = target: SARS-CoV2 Spike, Omicron BA.4/BA.5 variant (on pseudovirus) (SARS-CoV2)
[5] = target: SARS-CoV2 Spike, Omicron BA.4.6 variant (on pseudovirus) (SARS-CoV2)
[6] = target: SARS-CoV2 Spike, Omicron BA.1 variant (on pseudovirus) (SARS-CoV2)
[7] = target: SARS-CoV2 Spike, Omicron XBB1.5 variant (on pseudovirus) (SARS-CoV2)

Chain of ACE2 (615/615)-IgG-Fc (Q9BYF1 18-615 limits assumed): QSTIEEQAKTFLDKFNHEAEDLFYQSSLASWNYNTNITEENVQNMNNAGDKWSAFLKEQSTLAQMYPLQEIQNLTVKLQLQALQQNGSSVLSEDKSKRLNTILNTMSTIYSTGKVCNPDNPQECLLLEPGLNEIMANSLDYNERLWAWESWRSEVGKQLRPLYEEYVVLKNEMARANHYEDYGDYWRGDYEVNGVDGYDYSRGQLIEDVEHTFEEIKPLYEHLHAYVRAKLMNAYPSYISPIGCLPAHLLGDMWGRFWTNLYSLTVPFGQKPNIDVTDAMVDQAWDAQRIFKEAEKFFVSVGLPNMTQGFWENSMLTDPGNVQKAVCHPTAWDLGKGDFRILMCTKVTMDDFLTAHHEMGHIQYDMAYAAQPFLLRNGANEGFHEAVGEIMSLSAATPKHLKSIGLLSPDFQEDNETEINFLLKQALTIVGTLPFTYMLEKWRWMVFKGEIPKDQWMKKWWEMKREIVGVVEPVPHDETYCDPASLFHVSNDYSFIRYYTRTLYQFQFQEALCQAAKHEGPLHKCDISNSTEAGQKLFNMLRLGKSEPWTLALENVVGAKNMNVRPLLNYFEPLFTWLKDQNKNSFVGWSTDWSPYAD
Chain of ACE2 (615/615)-IgG-Fc (Q9BYF1 18-615 limits assumed): as above

Substance	Fold reduction from against D614G [1]	IC50 [M], neutralization [1]	Fold reduction from against D614G [2]	IC50 [M], neutralization [2]	Fold reduction from against D614G [3]	IC50 [M], neutralization [3]	Fold reduction from against D614G [4]	IC50 [M], neutralization [4]	Fold reduction from against D614G [5]	IC50 [M], neutralization [5]	Fold reduction from against D614G [6]	IC50 [M], neutralization [6]	IC50 [M], neutralization [7]
ACE2 (615/615)-IgG-Fc (from UniProt Q9BYF1 18-615; Q9BYF1 18-615) (Fc fusion)	3.51 fold	1.86e-11 M	19.4 fold	1.03e-10 M	2.32 fold	1.23e-11 M	11.6 fold	6.17e-11 M	6.32 fold	3.35e-11 M	1.25 fold	6.61e-12 M	–
ACE2 v2.4 (615)-Fc (x2), second row of this label in Table 6 (Fc fusion)	515 fold	2.73e-09 M	515 fold	2.73e-09 M	468 fold	2.48e-09 M	317 fold	1.68e-09 M	343 fold	1.82e-09 M	240 fold	1.27e-09 M	–
REGEN-COV (REGN10933+REGN10987)	–	–	–	5.2e-12 M	–	–	–	–	–	–	–	–	> 2e-08 M
